Assay results from patent publication US20170247441A1 (Hoffmann-La Roche, published 2017).
Substitutions are numbered along the chain they refer to. Names may count otherwise.

T1: ANG2 (R&D Systems, Cat#623-CF) (human, UniProt O15123 19-496)
T1 sequence: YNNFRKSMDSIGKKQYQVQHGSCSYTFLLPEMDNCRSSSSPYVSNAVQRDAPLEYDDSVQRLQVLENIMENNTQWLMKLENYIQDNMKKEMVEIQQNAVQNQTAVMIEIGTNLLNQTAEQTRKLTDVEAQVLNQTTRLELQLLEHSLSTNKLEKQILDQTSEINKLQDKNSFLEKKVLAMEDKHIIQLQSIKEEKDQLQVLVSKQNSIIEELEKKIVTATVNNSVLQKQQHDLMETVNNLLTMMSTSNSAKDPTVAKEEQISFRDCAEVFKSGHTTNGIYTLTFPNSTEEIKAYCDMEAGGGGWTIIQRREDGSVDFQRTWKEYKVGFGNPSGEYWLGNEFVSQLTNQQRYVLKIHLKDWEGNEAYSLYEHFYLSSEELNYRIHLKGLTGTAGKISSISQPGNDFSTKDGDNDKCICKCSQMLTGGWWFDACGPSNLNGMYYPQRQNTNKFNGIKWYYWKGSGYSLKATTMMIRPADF

T2: human ANG2-RBD-Fc-region fusion (human, UniProt O15123 275-496, limits assumed)
T2 construct: not shown: Fc-region
T2 sequence: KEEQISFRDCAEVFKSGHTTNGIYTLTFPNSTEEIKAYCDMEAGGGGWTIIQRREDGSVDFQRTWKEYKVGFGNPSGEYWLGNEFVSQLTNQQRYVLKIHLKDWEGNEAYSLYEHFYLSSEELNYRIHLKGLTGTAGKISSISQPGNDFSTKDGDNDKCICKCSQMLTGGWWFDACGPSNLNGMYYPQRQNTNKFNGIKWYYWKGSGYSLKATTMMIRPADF

B1: XAng2-0090 (Fab)
heavy: not shown
light: SYVLTQPPSVSVAPGQTARITCGGNNIGSKSVHWYQQKPGQAPVLVVYDTSDRPSGIPERFSGSNSGNTATLTISRVEAGDEADYYCQVWDSSSDHWVFGGGTKLTVLSSASTKGPSVFPLAPSSKSTSGGTAALGCLVKDYFPEPVTVSWNSGALTSGVHTFPAVLQSSGLYSLSSVVTVPSSSLGTQTYICNVNHKPSNTKVDKKVEPKSC
notes: CrossFab CL-CH1, valency 1; differences VH: S100dP, G100jA, T28N, T30A; VL: D50T
B2: XAng2-0041 (Fab)
heavy: not shown
light: B1 light with T50D
notes: CrossFab CL-CH1, valency 1; differences VH: S100dP, G100jA, T28N, T30A; VL: wt
B3: XAng2-0075 (Fab)
heavy: not shown
light: B1 light
notes: CrossFab CL-CH1, valency 1; differences VH: S100dP, G100jA, T28N, T30A, D100bS; VL: D50T
B4: XAng2-0099 (antibody)
heavy: not shown
light: B1 light with T50D
notes: CrossMab CL-CH1, valency for ANG2 2; differences VH: S100dP, G100jA, T28N, T30A; VL: wt
B5: XAng2-0100 (antibody)
heavy: not shown
light: B1 light
notes: CrossMab CL-CH1, valency for ANG2 2; differences VH: S100dP, G100jA, T28N, T30A; VL: D50T
B6: XAng2-0101 (antibody)
heavy: not shown
light: B1 light
notes: CrossMab CL-CH1, valency for ANG2 2; differences VH: S100dP, G100jA, T28N, T30A, D100bE; VL: D50T
B7: 0025 (Fab)
heavy: not shown
light: B1 light with T50D
notes: CrossFab CL-CH1, valency 1; differences VH: T28N, T30V; VL: wt
B8: XAng2-0156 (Fab)
heavy: not shown
light: B1 light with S1Q, Y2P, V3G, W97Y, G101T, L105V
notes: as for B3
B9: 0058 (Fab)
heavy: not shown
light: B1 light with T50D
notes: CrossFab CL-CH1, valency 1; differences VH: S100dP, G100jA, T28N, T30A, D100bT; VL: wt
B10: 0042 (Fab)
heavy: not shown
light: B1 light with T50D
notes: CrossFab CL-CH1, valency 1; differences VH: S100dP, G100jA, T28N, T30K; VL: wt
B11: 0060 (Fab)
heavy: not shown
light: B1 light
notes: CrossFab CL-CH1, valency 1; differences VH: S100dP, G100jA, T28N, T30A, D100bE; VL: D50T
B12: 0040 (Fab)
heavy: not shown
light: B1 light with T50D
notes: CrossFab CL-CH1, valency 1; differences VH: S100dP, G100jA, T28N, T30V; VL: wt
B13: 0027 (Fab)
heavy: not shown
light: B1 light with T50D
notes: CrossFab CL-CH1, valency 1; differences VH: T28N, T30K; VL: wt
B14: XAng2-0017 (Fab)
heavy: not shown
light: B1 light with T50D
notes: CrossFab CL-CH1, valency 1; VL: wt
B15: XAng2-0155 (Fab)
heavy: not shown
light: B1 light with S1Q, Y2P, V3G, W97Y, G101T, L105V
notes: as for B1
B16: 0074 (Fab)
heavy: not shown
light: B1 light with T50D
notes: CrossFab CL-CH1, valency 1; differences VH: S100dP, G100jA, T28N, T30A, D100bS; VL: wt
B17: 0057 (Fab)
heavy: not shown
light: B1 light with T50D
notes: CrossFab CL-CH1, valency 1; differences VH: S100dP, G100jA, T28N, T30A, D100bE; VL: wt
B18: 0061 (Fab)
heavy: not shown
light: B1 light
notes: CrossFab CL-CH1, valency 1; differences VH: S100dP, G100jA, T28N, T30A, D100bT; VL: D50T
B19: XAng2-0026 (Fab)
heavy: not shown
light: B1 light with T50D
notes: CrossFab CL-CH1, valency 1; differences VH: T28N, T30A; VL: wt
B20: XAng2-0033 (Fab)
heavy: not shown
light: B1 light with T50D
notes: CrossFab CL-CH1, valency 1; differences VH: T28N, S100dP, G100jA; VL: wt
B21: 0028 (Fab)
heavy: not shown
light: B1 light with T50D
notes: CrossFab CL-CH1, valency 1; differences VH: T30K; VL: wt
B22: Xang2-0165 (bispecific antibody, human IgG1, kappa, L234A L235A)
heavy 1: not shown
light 1: B1 light
heavy 2: EVQLVESGGGLVQPGGSLRLSCAASGYDFTHYGMNWVRQAPGKGLEWVGWINTYTGEPTYAADFKRRFTFSLDTSKSTAYLQMNSLRAEDTAVYYCAKYPYYYGTSHWYFDVWGQGTLVTVSSASTKGPSVFPLAPSSKSTSGGTAALGCLVKDYFPEPVTVSWNSGALTSGVHTFPAVLQSSGLYSLSSVVTVPSSSLGTQTYICNVNHKPSNTKVDKKVEPKSCDKTHTCPPCPAPEAAGGPSVFLFPPKPKDTLMASRTPEVTCVVVDVSHEDPEVKFNWYVDGVEVHNAKTKPREEQYNSTYRVVSVLTVLAQDWLNGKEYKCKVSNKALGAPIEKTISKAKGQPREPQVYTLPPCRDELTKNQVSLWCLVKGFYPSDIAVEWESNGQPENNYKTTPPVLDSDGSFFLYSKLTVDKSRWQQGNVFSCSVMHEALHNAYTQKSLSLSPGK
light 2: not shown
notes: ANG2/VEGF bispecific CrossMab CL-CH1, valency for ANG2 1; ANG2 VH: S100dP, G100jA, T30A, T28N; VL: D50T; VEGF: wt2
B23: Xang2-0166 (bispecific antibody, human IgG1, kappa, L234A L235A)
heavy 1: not shown
light 1: B1 light
heavy 2: B22 heavy 2
light 2: not shown
notes: ANG2/VEGF bispecific CrossMab CL-CH1, valency for ANG2 1; ANG2 VH: S100dP, G100jA, T30A, T28N, D100bS; VL: D50T; VEGF: wt2

target: T1, ANG2 (R&D Systems, Cat#623-CF); assay: cell-based or functional assay

Row | Binder | relative biological activity [%]
1 | B1 | 706
2 | B2 | 838
3 | B3 | 128

target: T2, human ANG2-RBD-Fc-region fusion; assay: SPR, human ANG2-RBD-Fc captured, 1:1 model
Protocol: (§1) HBS-N (10 mM HEPES, 150 mM NaCl pH 7.4, GE Healthcare) was used as running buffer during the immobilization procedure. For the following kinetic characterization, sample and running buffer was HBS-P (10 mM HEPES, 150 mM NaCl pH 7.4, 0.05% Surfactant P20; GE Healthcare). The flow cell was set to 25° C.—and the sample block was set to 12° C.—and primed with running buffer twice prior to kinetic characterization.
(§2) Association was measured by injection of the Cross-Fabs in various concentrations in solution for 90 sec. at a flow rate of 90 μl/min starting with 300 nM in serial 1:3 dilutions. The dissociation phase was monitored for up to 600 sec. and triggered by switching from the sample solution to running buffer. All surfaces were regenerated by 60 sec. washing with a 3 M MgCl₂ solution at a flow rate of 5 μl/min. Bulk refractive index differences were corrected by subtracting the response obtained from an anti-human IgG antibody (Fc) surface. Blank injections were also subtracted (=double referencing). For calculation of KD and other kinetic parameters the Langmuir 1:1 model was used.

Row | Binder | koff [s⁻¹] | kon [M⁻¹ s⁻¹] | t½ [s]
4 | B1 | 0.00253 | 2.16e+06 | 274
5 | B2 | 0.00317 | 3.85e+06 | 219
6 | B3 | 0.031 | 2.22e+06 | 22

target: T2, human ANG2-RBD-Fc-region fusion; assay: SPR, human ANG2; bivalent CrossMab, avidity

Row | Binder | koff [s⁻¹] | kon [M⁻¹ s⁻¹]
7 | B4 | 0.00011 | 2.61e+07
8 | B5 | 0.000167 | 2.06e+07
9 | B6 | 0.00012 | 1.83e+07

target: T2, human ANG2-RBD-Fc-region fusion; assay: SPR, human ANG2-RBD-Fc captured, 1:1 model; remark: another data set of the same source

Row | Binder | koff [s⁻¹] | kon [M⁻¹ s⁻¹] | t1/2 [s] | t1/2 (S) [s] | Kd [nM]
10 | B7 | 0.0702 | 1.87e+06 | 10 | – | –
11 | B8 | 0.0031 | 675000 | – | 224 | –
12 | B9 | 0.0383 | 1.8e+06 | 18 | – | –
13 | B10 | 0.0128 | 3.22e+06 | 54 | – | –
14 | B11 | 0.0786 | 3.72e+06 | 9 | – | –
15 | B12 | 0.00592 | 2.59e+06 | 117 | – | 2.3
16 | B13 | 0.165 | 2.4e+06 | 4 | – | –
17 | B14 | 0.0357 | 3.03e+06 | 19 | – | –
18 | B15 | 0.0319 | 746000 | – | 22 | –
19 | B1 | 0.00253 | 2.16e+06 | 274 | – | –
20 | B16 | 0.0366 | 2.27e+06 | 19 | – | –
21 | B2 | 0.00317 | 3.85e+06 | 219 | – | –
22 | B3 | 0.031 | 2.22e+06 | 22 | – | –
23 | B17 | 0.0948 | 3.28e+06 | 7 | – | –
24 | B18 | 0.0314 | 1.8e+06 | 22 | – | –
25 | B19 | 0.0371 | 2.03e+06 | 19 | – | –
26 | B20 | 0.00225 | 753000 | 308 | – | –
27 | B21 | 0.259 | 1.81e+06 | 3 | – | –

target: T2, human ANG2-RBD-Fc-region fusion; assay: SPR, human ANG2; bivalent CrossMab, avidity; remark: another data set of the same source

Row | Binder | koff [s⁻¹] | kon [M⁻¹ s⁻¹] | t1/2 (S) [h]
28 | B4 | 0.00011 | 2.61e+07 | 1.75
29 | B5 | 0.000167 | 2.06e+07 | 1.15
30 | B6 | 0.00012 | 1.83e+07 | 1.6

target: T2, human ANG2-RBD-Fc-region fusion; assay: SPR, human ANG2; ANG2/VEGF bispecific CrossMab

Row | Binder | Kd [nM] | koff [s⁻¹] | kon [M⁻¹ s⁻¹] | t1/2 [s]
31 | B22 | 4 | 0.00112 | 302000 | 619
32 | B23 | 49 | 0.0135 | 275000 | 51

target: T3, cynomolgus ANG2-RBD-Fc-region fusion (cynomolgus); assay: SPR, cynomolgus ANG2-RBD-Fc captured, 1:1 model
T3 construct: domain: RBD
Protocol: as §1, §2

Row | Binder | Kd [nM] | koff [s⁻¹] | kon [M⁻¹ s⁻¹] | t½ [s]
33 | B1 | 2 | 0.00308 | 2.02e+06 | 225
34 | B2 | 2 | 0.0036 | 2.14e+06 | 193
35 | B3 | 24 | 0.0325 | 1.34e+06 | 21
